US20240342207, “MODIFIED NUCLEIC ACID COMPOSITIONS AND ASSOCIATED METHODS FOR TREATMENT OF PHENYLKETONURIA” (BOARD OF REGENTS, THE UNIVERSITY OF TEXAS SYSTEM, published 2024)

Columns and labels:
Conditions in all cases: tags: His-tag, E. coli; stem-loop
PAH P275L = biological target: T1, PAH P275L (Homo sapiens, UniProt P00439 P00439:1-452, P275L); experiment: EMSA; one of 13 of 17 binding mutants; affinity not decreased
T1 sequence: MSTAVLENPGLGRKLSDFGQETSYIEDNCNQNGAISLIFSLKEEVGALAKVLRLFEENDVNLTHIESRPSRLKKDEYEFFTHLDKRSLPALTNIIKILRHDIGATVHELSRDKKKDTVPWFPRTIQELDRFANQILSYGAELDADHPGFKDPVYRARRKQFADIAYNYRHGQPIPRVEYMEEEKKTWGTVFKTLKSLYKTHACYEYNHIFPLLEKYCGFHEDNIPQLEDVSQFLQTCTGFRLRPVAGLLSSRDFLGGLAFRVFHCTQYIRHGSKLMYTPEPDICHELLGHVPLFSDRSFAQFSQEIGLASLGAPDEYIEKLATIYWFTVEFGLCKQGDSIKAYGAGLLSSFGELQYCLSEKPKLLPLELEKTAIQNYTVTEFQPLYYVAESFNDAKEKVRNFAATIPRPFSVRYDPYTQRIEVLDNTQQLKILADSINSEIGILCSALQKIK

PAH Y417H = biological target: T2, PAH Y417H (Homo sapiens, UniProt P00439 P00439:1-452, Y417H); experiment: EMSA; one of 13 of 17 binding mutants (identity from p198 list)
T2 sequence: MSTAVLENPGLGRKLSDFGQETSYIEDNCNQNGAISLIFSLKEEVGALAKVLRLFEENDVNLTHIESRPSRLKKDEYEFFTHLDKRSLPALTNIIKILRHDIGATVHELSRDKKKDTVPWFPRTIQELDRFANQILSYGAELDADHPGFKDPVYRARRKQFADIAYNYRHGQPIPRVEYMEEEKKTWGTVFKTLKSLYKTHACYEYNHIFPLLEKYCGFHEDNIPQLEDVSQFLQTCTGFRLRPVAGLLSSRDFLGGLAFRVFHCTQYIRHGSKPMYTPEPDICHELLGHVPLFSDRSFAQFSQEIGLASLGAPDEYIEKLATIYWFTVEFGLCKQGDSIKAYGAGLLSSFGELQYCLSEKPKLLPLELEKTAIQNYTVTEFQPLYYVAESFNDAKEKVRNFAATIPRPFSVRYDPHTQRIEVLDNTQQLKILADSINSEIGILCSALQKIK
Source text: (§1) It was reasoned that supplementing lncRNAs might improve the catalytic activities of the PAH mutants, leading to reduced serum Phe concentrations and improved symptoms in patients with PKU. Scramble (Scr) and HULC mimics representing wild-type HULC nt. 181-201 and HULC A191G mutated sequences were designed for the following studies. 17 PAH mutants that were identified from patients with PKU and are known to affect the enzymatic activity of PAH (21, 22) were selected, and bacterially-expressed wild-type and mutant PAH (FIG. 10 and see FIG. S13A in Li et al. 2021) were collected. […] The denatured wild-type PAH proteins were included as a negative control.
(§2) RNA Electrophoretic Mobility Shift Assay (EMSA). The gel mobility shift assay was performed as previously described (42). Briefly, 500 ng recombinant His-tagged wild-type PAH or mutants were incubated with 0.035 μmol labeled probe in a RNA-protein binding buffer [(50 mM Tris-HCl 7.9, 10% glycerol, 100 mM KCl, 5 mM MgCl₂, 10 mM (3-ME, 0.1% NP40] for 30 min at 30° C. For cold RNA competition, 0.035 μmol radiolabeled RNA probes were first mixed with 7 μmol cold RNA competitors and then subjected to the gel shift assay.

PAH Y414C = biological target: T3, PAH Y414C (Homo sapiens, UniProt P00439 P00439:1-452, Y414C); experiment: as above
T3 sequence: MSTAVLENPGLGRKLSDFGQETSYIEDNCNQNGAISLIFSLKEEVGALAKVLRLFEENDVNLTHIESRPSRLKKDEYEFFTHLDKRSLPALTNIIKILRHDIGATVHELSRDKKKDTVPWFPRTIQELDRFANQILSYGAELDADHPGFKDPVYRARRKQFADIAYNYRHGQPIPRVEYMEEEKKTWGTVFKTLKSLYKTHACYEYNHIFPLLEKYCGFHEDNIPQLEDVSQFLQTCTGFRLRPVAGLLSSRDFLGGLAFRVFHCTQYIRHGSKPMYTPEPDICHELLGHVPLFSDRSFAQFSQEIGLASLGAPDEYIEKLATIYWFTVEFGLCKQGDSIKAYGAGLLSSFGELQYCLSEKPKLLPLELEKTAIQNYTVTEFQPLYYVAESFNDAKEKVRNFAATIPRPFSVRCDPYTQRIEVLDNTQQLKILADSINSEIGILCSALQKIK
Source text: as §1, §2

PAH TH63-64PN = biological target: T4, PAH TH63-64PN (Homo sapiens, UniProt P00439 P00439:1-452, T63P,H64N); experiment: EMSA; also decreased affinity in quantified assay
T4 sequence: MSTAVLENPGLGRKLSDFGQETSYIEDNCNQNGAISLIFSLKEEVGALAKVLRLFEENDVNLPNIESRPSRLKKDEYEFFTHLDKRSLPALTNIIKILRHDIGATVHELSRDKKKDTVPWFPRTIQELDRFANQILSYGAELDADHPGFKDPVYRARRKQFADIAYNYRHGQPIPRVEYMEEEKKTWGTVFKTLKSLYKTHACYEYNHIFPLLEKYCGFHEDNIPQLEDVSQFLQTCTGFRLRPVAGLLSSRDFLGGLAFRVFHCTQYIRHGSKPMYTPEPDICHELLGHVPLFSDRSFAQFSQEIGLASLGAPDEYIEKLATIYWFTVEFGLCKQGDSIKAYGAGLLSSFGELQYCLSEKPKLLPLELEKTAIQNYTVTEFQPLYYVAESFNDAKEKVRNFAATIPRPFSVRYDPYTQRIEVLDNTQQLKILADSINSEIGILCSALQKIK
Source text: as §1, §2

B1: HULC 181-201 mimic (ssRNA)
RNA: CAAAAUGCAUAUGUAUCUUUG
**Q.** Which results are given for B1?
**A.** binding result (PAH P275L): binds; binding result (PAH Y417H): binds; binding result (PAH Y414C): binds; binding result (PAH TH63-64PN): no binding
